Test results taken from patent publication WO2007059715A2 (dated 2007).

Target: chimeric protein PMEC1-His6 (dengue 2 virus, strain 1409, genotype …)
Assay: dot blot, 10 μg protein spotted, antibody 10 μg/ml

B1: monoclonal antibody 4G2 (antibody, V domains shown)
VH: EVQLQQSGPELVKPGTSVKISCKTSGYTFTEYTIHWVKQSHGKSLAWIGGIDPNSGGTNYSPNFKGKATLTVDKSSSTAYMDLRSLSSEDSAVYFCARIYHYDGYFDVWGAGTAVTVSS
VL: NIVMTQSPKSMSMSVGERVTLTCKASENVVTYVSWYQQKPEQSPKLLIYGASNRYTGVPDRFTGSGSATDFTLTISSVQAEDLADYHCGQGYSYPYTFGGGTKLEIK
notes: also called AcM 4G2; Mab 4G2
  binding result: binds
